Measurements from the RNAGym collection of RNA variant scans (doi:10.1021/acssynbio.7b00057).

B1: Pistol ribozyme (parent)
chain: GGGUCGUUGUUCCAUAAUCGCGUGGAUAUGGCACGCAAGUUUCUACCGGGCACCGUAAAUGUCCGACUGGAGCCGUUCGGGCGGCUAUAAACAGACCUCAGGCCCGAAGCGUGGCGGCACCUGCCGCCGGUGGUAAAAAAGAUCGGAAGAGCACACGUCU

Variants of: B1
Experiment: aptazyme ON/OFF ratio, guanine; higher = stronger switching; co-transcriptional cleavage with and without guanine
For U7C G9U U11G C12G C13G, the “aptazyme ON/OFF ratio” value was 1.17. With U7C G9U U10G U11A C12A the “aptazyme ON/OFF ratio” value was 1.2. For U7C G9U U10G U11A C12G, the “aptazyme ON/OFF ratio” value was 1.27. In the case of U7C G9U U10G U11A C12U, the “aptazyme ON/OFF ratio” value is reported as 1.08. With U7C G9U U11C C12U C13U the “aptazyme ON/OFF ratio” value was 1.13. In the case of U7C G9U U11C C12U C13A, the “aptazyme ON/OFF ratio” value is reported as 1.12. With U7C G9U U11C C12U C13G the “aptazyme ON/OFF ratio” value was 1.05. With U7C G9U U10C U11A C12A the “aptazyme ON/OFF ratio” value was 1.25. For U7C G9U U10C U11A C12U, the “aptazyme ON/OFF ratio” value was 1.19. In the case of U7C G9U U10C U11A C12G, the “aptazyme ON/OFF ratio” value is reported as 1.05. In the case of U7C G9U U10A U11A C12U, the “aptazyme ON/OFF ratio” value is reported as 1.36. In the case of U7C G9U U10A U11A C12G, the “aptazyme ON/OFF ratio” value is reported as 1.29. In the case of U7C G9U U10A U11A C12A, the “aptazyme ON/OFF ratio” value is reported as 1.2. In the case of U7C G9C U11G C12U C13G, the “aptazyme ON/OFF ratio” value is reported as 1.12. With U7C G9C U11G C12U C13A the “aptazyme ON/OFF ratio” value was 1.1. With U7C G9C U11G C12U C13U the “aptazyme ON/OFF ratio” value was 1.21. With U7C G9U U10C U11C C12U C13A the “aptazyme ON/OFF ratio” value was 1.02. With U7C G9U U10C U11C C12U C13G the “aptazyme ON/OFF ratio” value was 1.02. For U7C G9U U10C U11C C12U C13U, the “aptazyme ON/OFF ratio” value was 1.05. For U7C G9C U10G U11G C12A C13G, the “aptazyme ON/OFF ratio” value was 1.12. In the case of U7C G9C U10G U11G C12A C13U, the “aptazyme ON/OFF ratio” value is reported as 1.09. With U7C G9C U10G U11G C12A C13A the “aptazyme ON/OFF ratio” value was 1.08. In the case of U7C G9U U10A U11C C12G, the “aptazyme ON/OFF ratio” value is reported as 1.43. In the case of U7C G9U U10A U11C C12U, the “aptazyme ON/OFF ratio” value is reported as 1.1. For U7C G9U U10A U11C C12A, the “aptazyme ON/OFF ratio” value was 1.29. In the case of U7C G9C U11C C12G C13U, the “aptazyme ON/OFF ratio” value is reported as 1.04. For U7C G9C U11C C12G C13A, the “aptazyme ON/OFF ratio” value was 1.04. With U7C G9C U11C C12G C13G the “aptazyme ON/OFF ratio” value was 1.04. With U7C G9U U10G U11G C12G C13A the “aptazyme ON/OFF ratio” value was 1.13. For U7C G9U U10G U11G C12G C13G, the “aptazyme ON/OFF ratio” value was 1.12. In the case of U7C G9U U10G U11G C12G C13U, the “aptazyme ON/OFF ratio” value is reported as 1.08. With U7C G9U U10A U11C C12A C13A the “aptazyme ON/OFF ratio” value was 1.22. For U7C G9U U10A U11C C12A C13U, the “aptazyme ON/OFF ratio” value was 1.23. In the case of U7C G9U U10A U11C C12A C13G, the “aptazyme ON/OFF ratio” value is reported as 1.14. In the case of U7C G9U C13G, the “aptazyme ON/OFF ratio” value is reported as 1.04. In the case of U7C G9U C13U, the “aptazyme ON/OFF ratio” value is reported as 1.06. In the case of U7C G9U C13A, the “aptazyme ON/OFF ratio” value is reported as 1.04. In the case of U7C G9U U10C U11A C12A C13G, the “aptazyme ON/OFF ratio” value is reported as 1.04. In the case of U7C G9U U10C U11A C12A C13U, the “aptazyme ON/OFF ratio” value is reported as 1.15. With U7C G9U U10C U11A C12A C13A the “aptazyme ON/OFF ratio” value was 1.15. In the case of U7C G9U U10C U11G C12U, the “aptazyme ON/OFF ratio” value is reported as 1.22. In the case of U7C G9U U10C U11G C12A, the “aptazyme ON/OFF ratio” value is reported as 1.09. With U7C G9U U10C U11G C12G the “aptazyme ON/OFF ratio” value was 1.1. With U7C G9C U10G U11C C12G C13A the “aptazyme ON/OFF ratio” value was 1.16. With U7C G9C U10G U11C C12G C13U the “aptazyme ON/OFF ratio” value was 1.12. In the case of U7C G9C U10G U11C C12G C13G, the “aptazyme ON/OFF ratio” value is reported as 1.13. With U7C G9U U10C U11A C12U C13G the “aptazyme ON/OFF ratio” value was 1.04. In the case of U7C G9U U10C U11A C12U C13U, the “aptazyme ON/OFF ratio” value is reported as 1.16. For U7C G9U U10C U11A C12U C13A, the “aptazyme ON/OFF ratio” value was 1.13. With U7C G9U U10G U11G the “aptazyme ON/OFF ratio” value was 1.11. With U7C G9U U10G U11A the “aptazyme ON/OFF ratio” value was 1.03. With U7C G9U U10G U11C the “aptazyme ON/OFF ratio” value was 1.09. For U7C G9U U11A C12G C13U, the “aptazyme ON/OFF ratio” value was 1.14. With U7C G9U U11A C12G C13A the “aptazyme ON/OFF ratio” value was 1.2. With U7C G9U U11A C12G C13G the “aptazyme ON/OFF ratio” value was 1.24. For U7C G9C U11G C13U, the “aptazyme ON/OFF ratio” value was 1.06. For U7C G9C U11G C13A, the “aptazyme ON/OFF ratio” value was 1.03. With U7C G9C U11G C13G the “aptazyme ON/OFF ratio” value was 1.03. For U7C G9U U11C C13G, the “aptazyme ON/OFF ratio” value was 1.02. In the case of U7C G9U U11C C13A, the “aptazyme ON/OFF ratio” value is reported as 1.05. With U7C G9U U11C C13U the “aptazyme ON/OFF ratio” value was 1.05. With U7C G9U U10C U11G C12G C13A the “aptazyme ON/OFF ratio” value was 1.1. With U7C G9U U10C U11G C12G C13U the “aptazyme ON/OFF ratio” value was 1.11. In the case of U7C G9U U10C U11G C12G C13G, the “aptazyme ON/OFF ratio” value is reported as 1.11. In the case of U7C G9U U10A U11C C12G C13U, the “aptazyme ON/OFF ratio” value is reported as 1.15. For U7C G9U U10A U11C C12G C13A, the “aptazyme ON/OFF ratio” value was 1.16. In the case of U7C G9U U10A U11C C12G C13G, the “aptazyme ON/OFF ratio” value is reported as 1.19. For U7C G9C U10G U11G, the “aptazyme ON/OFF ratio” value was 1.11. In the case of U7C G9C U10G U11C, the “aptazyme ON/OFF ratio” value is reported as 1.05. With U7C G9U U10C U11G C13G the “aptazyme ON/OFF ratio” value was 1.04. For U7C G9U U10C U11G C13A, the “aptazyme ON/OFF ratio” value was 1.24. For U7C G9U U10C U11G C13U, the “aptazyme ON/OFF ratio” value was 1.23. With U7C G9U U11G C12G the “aptazyme ON/OFF ratio” value was 1.18. For U7C G9U U11G C12A, the “aptazyme ON/OFF ratio” value was 1.09. With U7C G9U U10C C12A C13U the “aptazyme ON/OFF ratio” value was 1.09. For U7C G9U U10C C12A C13G, the “aptazyme ON/OFF ratio” value was 1.09. With U7C G9U U10C C12A C13A the “aptazyme ON/OFF ratio” value was 1.09. For U7C G9C U10G U11A C12U C13U, the “aptazyme ON/OFF ratio” value was 1.15. In the case of U7C G9C U10G U11A C12U C13A, the “aptazyme ON/OFF ratio” value is reported as 1.19. In the case of U7C G9C U10G U11A C12U C13G, the “aptazyme ON/OFF ratio” value is reported as 1.05. With U7C G9U U10C U11A C13U the “aptazyme ON/OFF ratio” value was 1.16. For U7C G9U U10C U11A C13G, the “aptazyme ON/OFF ratio” value was 1.04. For U7C G9U U10C U11A C13A, the “aptazyme ON/OFF ratio” value was 1.1. In the case of U7C G9U U10A U11G C12A C13G, the “aptazyme ON/OFF ratio” value is reported as 1.1.
